# Measured values as given in the domain aggregation screens of Martell et al. (2025).
# Assay: soluble fraction after stress (log2 fold change); higher = more stays soluble; pooled small domains, quantitative proteomics
# Conditions: stress: pH 4
# Method in brief: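 Pooled custom libraries of small protein domains were stressed at pH 4 and then measured by high-throughput quantitative proteomics. The fold change in the amount of each domain that stays soluble after the acid stress serves as a measure of aggregation propensity. Fold changes are given on a log2 scale, and higher values mean more of the domain stayed soluble.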
row,Sequence,soluble fraction (log2)
1,HMKMHKIIKERRLALNFTQEQVAKYLGVTTPAVNKWEKGISYPDISLLPALARLLDTDLNTLLSF,-1.26
2,HMKTNQINVSGLSKEKNFEVLESLDVYKFYNLFFLNKIKIDQLINSYNHIDNYSVFKKYPSSLIVKLSE,-0.0619
3,HMGERMELTLDNPREAIPVLDAMGFANYQVVDKEHIHIFERLNESALVNMELAKAGIPVKGISITSE,-0.523
4,HMTRAETPMAFIRAMVEAYTERGLDPNQALRKAQITPSQLKSTNARVTTLQMEWMSETAMREL,-0.464
5,HMLDSPHDDLNRKIVQMLQNDGRLPYKDIAEVLSVSEGTVRNRVQRMRDAGMLNIVALIDPMAI,-0.498
6,HMSSAVKRALAELPENWRMIVYYRVVEGLSYAEIAKVLDIPDGSVMSGLHRGKKMLRGLLLEYAQQEGYD,-0.74
7,HMTPATVVIPKVAGQTVAEAKETLKNANFEIGEEKDESSDTVEEGRVIRTDPESGTNRKEGTKINLIVSS,0.0687
8,HMDHSSLIKKLRLERGLSQKKLAQGISQRSTLASFENNATKISYNILIQYLDRMNVTLEEYQFMLDGNNL,-1.33
9,HMEIDFDKINSIFNDANKLYEEGDYFEANNLYKNIVSSNIISKDLYYNLGLSYAKIGSNGYAILWYERALN,-0.215
10,HMPGGLSAEDVEKMVEKVLTVNGDVVEEIRSGRDPKGKKIKFLAGLVMRDARGQADAAAVSGILERRLKEG,0.371
11,HMQINLKQSSDEELVKIITVQVHHYEPHTVKAAEAEIERRGIDKMRMAHLVKKVAQENTAVQEIQD,0.134
12,HMDLSLQTFNELKTELTNNKITIDQFSEKINEFDITSDIFEISRELFLDDTLSLEDYLVVIENVLIN,-0.782
13,HMDEFHLSERERQILNLLVLGHTYKHIASDLNIAYATVNKHVSNVYAKLRVQSASEAVALAIRKGL,-0.58
14,HMSSGSLLTEREIEILAEMAKGLTNKAIGEKLFISVATVKTHILNIYRKLEVSSRVTAVNKAKQMRL,-0.11
15,HMYDNTVTKYVNSLSVYVRKGPSTSDEIVTSLIKDTDVTVVGENGEWYKIKYKEFEGYIYKNLLSDNKT,-0.125
16,HMKSILSEIPGIGPKKRKSLMMQFGSVKNISEASLKDLSSTKGINSNLSKEIFNFFSVEKNN,0.15
17,HMVEVPKVAGMSTAQGVSELEQKGFVVNRTESYDDTVPKGNIISQTPEGGTKVPSGSAVTIKISQGAE,-0.0558
18,HMLLNLSPIETQVLRLIQQDKKVTYESIGKELTIGQTKVYKVLGHLKELNVIERIGGRTYGHWHILL,-0.599
19,HMLVIMKTGASEEEIGRVIERIEGEGLSAHVSRGTERTVIGVIGQGVDVHRIAGVLGGMSGVESLVPIS,0.0269

row,Sequence,soluble fraction (log2)
1,HMDGVNRDKIEYRLDDLYYLKGSDAPYTGKVFEEWSGQQRVETNYIDGKLDGLSESWHENGQKASEVNY,-0.831
2,HMSEQTLEDVRRLIEHLPESQKEVVKMRYYQDLSFKEIADLKGISINTALGRMHYAINNMRKMAKEYGL,-0.473
3,HMISLNEDQKLAILNEWNQRPDDPPFIKELIELVFPDIPEEAKTGRSRYGIAIKKFLAEKSLQAKV,-0.554
4,HMVPLTPGELVGTEVRVLWWKEGRGEVIASSRGHQLTLEAHSEDPLRAGSTAVVLEAADDVLVVTS,-1.18
5,HMGAEIRDKVRAALAGLNPRAAEIFVMRYFDGYGNREIARLLNTSWSTIAVTLHRTRAKLQKELK,0.0552
6,HMNMVSGHLQIKKGYYYVVLSYYDNRNKRHVKYVSTGLPEKGNKRKAEAALARVRSEFEPPQE,0.353
7,HMIDEKVQAADKSIEIGNLSPLKGLVTDDEMHELEKLFEKVMALKDFEVNDVGAGRKYIEAYVSFFKFAEG,-0.847
8,HMKHFNDEELDGFAGLKSDDYNEEQVELFRNIFEELHPDEIIEWTESLRRRGIEIPSSLKDEVVMMIN,-1.69
9,HMHDLGEQIIEKLRASGGISTLTDKSDPDAIYRQFKVSKKKYKQALGTLYKSRRITLAPNQIKLA,0.22
10,HMNNGTDGLTTRLRRAILAGQYTFKERLPSERQLAEHFNTSRGTVRKVLQRLTTMNLVEQRAGSGTYVRYG,0.22
11,HMTSRWEIGYNVAKKYYDEHGNLDVERAVYDNFELKKWLNTQRYKNSAGTLAEKYKIKLDELGMNWER,-0.00494
12,HMEDYYKILGVSKDASIDDIKKSYRKLSLQNHPDRNKSPQASENFAKINSAYEVLSDQRKKRQYDMQQSM,≥ 0.43
13,HMASISDRIRLLRAESHMTQEEFGRIFGISKPTVSFYEHGKSVPNDQIKTAIARYFGVSVDYLLGVTD,-0.467
14,HMQPNVTRERILAAAMTVFAQKGWQKTSLDEVAAAAGMTKGAIYWHFRNKNDLFFALLDARLQRD,-1.08
15,HMGEAIPVPDLKHKALTDAEHLVHELGLEIQVVDTGYVKSLPADYILGQSLAPGEKVKSGHIIYVTINSP,0.0193
16,HMKLTALWTANPKISAPIYSEPSTQSKTLGRIYQGASVKVYSFDPEWAYINSSGVVGYVLRRHLE,0.326
17,HMNFSRQREIIYEQVRNFPVHPTAEEVYRALKNDNPNLSLGTVYRNLNQLSEAGMLLKIPIADGSDRFDGR,-0.56
18,HMGPEISEDAKVVFDRLKNHDEILLNNFKSEFDLSNKKWDKIIKELRGNDLISIIKSEDGNLFIKP,-0.293
19,HMEEIDLTPAEEILNKLPDNSRGYLIPTLNKIQNAYRFLPDPAMELLMEFFNVSRAEIFGVISFYPQLMI,-0.533
